From the supplement of paper PMC7125110
± gives the standard error. For part of these data: This sample holds only a part of the variants without activity.

B1: glmS ribozyme (parent)
chain: AUAAAAGCGCCAGAACUACAGAAAUGUAGUUGACGAGGAGGAGGUUUAUCGAAUUUUCGGCGGAUGCCUCCAAA

Legend:
Conditions in all cases: with glucosamine-6-phosphate
glucosamine-6-phosphate [1] = variants of: B1; assay: kcat; higher = faster cleavage; RNA array
In short: (§1)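 Tracking of barcoded ribozyme variants used a hybridised Cy3 probe at 37 °C, after in situ transcription by E. coli RNA polymerase on sequenced MiSeq chips. The flowed solution held 40 μM to 10 mM glucosamine-6-phosphate in HEPES/KCl/Mg(OAc)2 buffer, and imaging ran over ~14 h. kobs was taken from exponential decay fits of normalised per-tile medians, and kcat and KM from weighted Michaelis–Menten fits.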

glucosamine-6-phosphate [2] = variants of: B1; assay: self-cleavage kobs at 640 uM GlcN6P; higher = faster cleavage; RNA array
In short: as §1

glucosamine-6-phosphate [3] = variants of: B1; assay: self-cleavage kobs at 2500 uM GlcN6P; higher = faster cleavage; RNA array
In short: as §1

glucosamine-6-phosphate [4] = variants of: B1; assay: self-cleavage kobs at 10000 uM GlcN6P; higher = faster cleavage; RNA array
In short: as §1

glucosamine-6-phosphate [5] = variants of: B1; assay: KM; higher = weaker cofactor use; RNA array
In short: as §1

glucosamine-6-phosphate [6] = variants of: B1; assay: self-cleavage kobs at 40 uM GlcN6P; higher = faster cleavage; RNA array
In short: as §1

glucosamine-6-phosphate [7] = variants of: B1; assay: self-cleavage kobs at 160 uM GlcN6P; higher = faster cleavage; RNA array
In short: as §1

Row | Variant | kcat (glucosamine-6-phosphate [1]) | self-cleavage kobs at 640 uM GlcN6P (glucosamine-6-phosphate [2]) | self-cleavage kobs at 2500 uM GlcN6P (glucosamine-6-phosphate [3]) | self-cleavage kobs at 10000 uM GlcN6P (glucosamine-6-phosphate [4]) | KM (glucosamine-6-phosphate [5]) | self-cleavage kobs at 40 uM GlcN6P (glucosamine-6-phosphate [6]) | self-cleavage kobs at 160 uM GlcN6P (glucosamine-6-phosphate [7])
1 | A15U C70A | 6.56e-05 ± 1e-05 s⁻¹ | 3.49e-05 ± 1.2e-05 s⁻¹ | 6.73e-05 ± 7e-06 s⁻¹ | 4.87e-05 ± 1.1e-05 s⁻¹ | – | – | –
2 | A15U C70U | 0.00472 ± 0.0018 s⁻¹ | 0.00147 ± 0.00031 s⁻¹ | 0.00286 ± 0.00048 s⁻¹ | 0.00469 ± 0.00065 s⁻¹ | 1.33 ± 0.65 mM | 0.000195 ± 1.7e-05 s⁻¹ | 0.000378 ± 4.7e-05 s⁻¹
3 | A15C U46G | 0.00166 ± 0.00022 s⁻¹ | 0.000271 ± 4.6e-05 s⁻¹ | 0.000681 ± 0.00011 s⁻¹ | 0.00129 ± 0.00019 s⁻¹ | 3.24 ± 0.69 mM | – | 8.08e-05 ± 2.2e-05 s⁻¹
4 | A15G U65A | 0.00646 ± 0.0018 s⁻¹ | 0.000867 ± 0.00018 s⁻¹ | 0.00193 ± 0.00048 s⁻¹ | 0.00545 ± 0.00064 s⁻¹ | 3.29 ± 1.3 mM | 9.64e-05 ± 1.3e-05 s⁻¹ | 0.000343 ± 0.00011 s⁻¹
5 | A15C U47C | 0.000622 ± 8.7e-05 s⁻¹ | 0.000108 ± 2e-05 s⁻¹ | 0.000244 ± 4.5e-05 s⁻¹ | 0.000465 ± 7.5e-05 s⁻¹ | 3.55 ± 0.83 mM | – | –
6 | A15G C61G | < 1e-05 s⁻¹ | < 1e-05 s⁻¹ | < 1e-05 s⁻¹ | – | – | < 1e-05 s⁻¹ | < 1e-05 s⁻¹
7 | A15C U45C A53G U69C | 0.000427 ± 8e-05 s⁻¹ | 5.45e-05 ± 2e-05 s⁻¹ | 0.000198 ± 4.6e-05 s⁻¹ | 0.000288 ± 8.5e-05 s⁻¹ | 3.74 ± 1.2 mM | < 1e-05 s⁻¹ | –
8 | A15C G37A | 0.000686 ± 9.5e-05 s⁻¹ | 9.31e-05 ± 1.5e-05 s⁻¹ | 0.000226 ± 3.7e-05 s⁻¹ | 0.000471 ± 4.5e-05 s⁻¹ | 4.65 ± 1.2 mM | – | –
9 | A15G A48U | 0.000853 ± 8.9e-05 s⁻¹ | 0.000113 ± 1.4e-05 s⁻¹ | 0.000349 ± 4.7e-05 s⁻¹ | 0.000604 ± 8.6e-05 s⁻¹ | 3.93 ± 0.59 mM | – | 3.92e-05 ± 9.3e-06 s⁻¹
10 | A15C G32C A53C | 2.15e-05 ± 1.1e-06 s⁻¹ | – | – | – | – | – | –
11 | A15U A53C | 0.000734 ± 0.00026 s⁻¹ | 0.000643 ± 0.00016 s⁻¹ | – | 0.000636 ± 0.00012 s⁻¹ | – | – | 0.00014 ± 4.7e-05 s⁻¹
12 | A15U A42G | 0.00684 ± 0.0019 s⁻¹ | 0.00165 ± 0.00033 s⁻¹ | 0.0039 ± 0.0016 s⁻¹ | 0.00687 ± 0.0013 s⁻¹ | 1.5 ± 0.57 mM | 0.000222 ± 3.2e-05 s⁻¹ | 0.000542 ± 0.00018 s⁻¹
13 | A15U A42U | 4.62e-05 ± 4.1e-06 s⁻¹ | – | – | 3.96e-05 ± 1e-05 s⁻¹ | 1.83 ± 0.68 mM | – | –
14 | A15C U45G | 0.000779 ± 0.00013 s⁻¹ | 0.000218 ± 2.9e-05 s⁻¹ | 0.000568 ± 8.2e-05 s⁻¹ | 0.000562 ± 0.00014 s⁻¹ | 1.57 ± 0.4 mM | – | 7.06e-05 ± 1.5e-05 s⁻¹
15 | A15G C34G | < 1e-05 s⁻¹ | < 1e-05 s⁻¹ | – | – | – | < 1e-05 s⁻¹ | –
